25 variants from the supplement of paper PMC7125110 can be followed below.

± gives the standard error. Fewer inactive variants are shown than the library holds.

B1: glmS ribozyme (parent)
chain: AUAAAAGCGCCAGAACUACAGAAAUGUAGUUGACGAGGAGGAGGUUUAUCGAAUUUUCGGCGGAUGCCUCCAAA

Holding throughout (conditions): with glucosamine-6-phosphate
Variants of B1 are the subject of data set [1]. Kind of data set: self-cleavage kobs at 40 uM GlcN6P; higher = faster cleavage; RNA array. In outline:
(§1)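 Tiles bearing barcoded ribozyme variants, transcribed in situ by E. coli RNA polymerase on sequenced MiSeq chips, were imaged over ~14 h at 37 °C using a hybridised Cy3 probe. Glucosamine-6-phosphate was supplied at 40 μM to 10 mM in HEPES/KCl/Mg(OAc)2 buffer. kobs came from one- or two-exponential decay fits to normalised per-tile medians, and weighted Michaelis–Menten fits then provided kcat and KM.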

The variants in data set [2] derive from B1. The data set can be described thus: self-cleavage kobs at 160 uM GlcN6P; higher = faster cleavage; RNA array. In outline: as §1
Data set [3] covers variants of B1. The data set can be described thus: self-cleavage kobs at 640 uM GlcN6P; higher = faster cleavage; RNA array. The method, boiled down:
as §1

Data set [4] covers variants of B1. Kind of data set: self-cleavage kobs at 10000 uM GlcN6P; higher = faster cleavage; RNA array. The method, boiled down: as §1
Variants of B1 are the subject of data set [5]. Kind of data set: self-cleavage kobs at 2500 uM GlcN6P; higher = faster cleavage; RNA array. The method, boiled down: as §1

In the case of G44C G60C, the “self-cleavage kobs at 40 uM GlcN6P” value with glucosamine-6-phosphate [1] was less than 1e-05 s⁻¹. In addition, the “self-cleavage kobs at 160 uM GlcN6P” value with glucosamine-6-phosphate [2] is less than 1e-05 s⁻¹. For the same variant, the “self-cleavage kobs at 640 uM GlcN6P” value in the data set with glucosamine-6-phosphate [3] is less than 1e-05 s⁻¹. Further, the “self-cleavage kobs at 10000 uM GlcN6P” value in the data set with glucosamine-6-phosphate [4] was less than 1e-05 s⁻¹.
Turning to A36C G43U, the “self-cleavage kobs at 40 uM GlcN6P” value in the data set with glucosamine-6-phosphate [1] is less than 1e-05 s⁻¹. In the data set with glucosamine-6-phosphate [3], the “self-cleavage kobs at 640 uM GlcN6P” value was less than 1e-05 s⁻¹. Besides, the “self-cleavage kobs at 2500 uM GlcN6P” value with glucosamine-6-phosphate [5] is less than 1e-05 s⁻¹. In the data set with glucosamine-6-phosphate [4], the “self-cleavage kobs at 10000 uM GlcN6P” value was less than 1e-05 s⁻¹.
For C16G A33U, the “self-cleavage kobs at 40 uM GlcN6P” value with glucosamine-6-phosphate [1] is less than 1e-05 s⁻¹. Besides, the “self-cleavage kobs at 10000 uM GlcN6P” value in the data set with glucosamine-6-phosphate [4] amounted to 3.36e-05 ± 1e-05 s⁻¹.
Turning to G44C U69G, the “self-cleavage kobs at 40 uM GlcN6P” value with glucosamine-6-phosphate [1] was less than 1e-05 s⁻¹. In the data set with glucosamine-6-phosphate [5], the “self-cleavage kobs at 2500 uM GlcN6P” value was less than 1e-05 s⁻¹. Moreover, in the data set with glucosamine-6-phosphate [4], the “self-cleavage kobs at 10000 uM GlcN6P” value is less than 1e-05 s⁻¹.
Turning to C8A A42U G62U, the “self-cleavage kobs at 40 uM GlcN6P” value with glucosamine-6-phosphate [1] was less than 1e-05 s⁻¹. For the same variant, in the data set with glucosamine-6-phosphate [5], the “self-cleavage kobs at 2500 uM GlcN6P” value was less than 1e-05 s⁻¹.
As to A6C C10U U30G A52G, the “self-cleavage kobs at 40 uM GlcN6P” value with glucosamine-6-phosphate [1] is less than 1e-05 s⁻¹. Further, the “self-cleavage kobs at 10000 uM GlcN6P” value with glucosamine-6-phosphate [4] is less than 1e-05 s⁻¹.
Regarding A36G A39U G43C C61G, the “self-cleavage kobs at 40 uM GlcN6P” value with glucosamine-6-phosphate [1] is less than 1e-05 s⁻¹.
Take G44C G62A: the “self-cleavage kobs at 40 uM GlcN6P” value with glucosamine-6-phosphate [1] is less than 1e-05 s⁻¹. In addition, the “self-cleavage kobs at 160 uM GlcN6P” value with glucosamine-6-phosphate [2] was less than 1e-05 s⁻¹. The “self-cleavage kobs at 640 uM GlcN6P” value in the data set with glucosamine-6-phosphate [3] is less than 1e-05 s⁻¹. In the data set with glucosamine-6-phosphate [5], the “self-cleavage kobs at 2500 uM GlcN6P” value is less than 1e-05 s⁻¹. The “self-cleavage kobs at 10000 uM GlcN6P” value in the data set with glucosamine-6-phosphate [4] was less than 1e-05 s⁻¹.
As to U31A G38U A42C U55G, in the data set with glucosamine-6-phosphate [1], the “self-cleavage kobs at 40 uM GlcN6P” value was less than 1e-05 s⁻¹. Further, the “self-cleavage kobs at 640 uM GlcN6P” value with glucosamine-6-phosphate [3] is less than 1e-05 s⁻¹.
For G60U G63A C67U, in the data set with glucosamine-6-phosphate [1], the “self-cleavage kobs at 40 uM GlcN6P” value is less than 1e-05 s⁻¹.
Take G9C A14U G51A C70G: the “self-cleavage kobs at 40 uM GlcN6P” value with glucosamine-6-phosphate [1] was less than 1e-05 s⁻¹.
Take A52U G63C A64U: the “self-cleavage kobs at 40 uM GlcN6P” value with glucosamine-6-phosphate [1] was less than 1e-05 s⁻¹. In addition, in the data set with glucosamine-6-phosphate [5], the “self-cleavage kobs at 2500 uM GlcN6P” value is less than 1e-05 s⁻¹.
Regarding A14U G38A U45G G63C, the “self-cleavage kobs at 40 uM GlcN6P” value with glucosamine-6-phosphate [1] is less than 1e-05 s⁻¹.
For the variant G9U A33G G38U G44U C58A, in the data set with glucosamine-6-phosphate [1], the “self-cleavage kobs at 40 uM GlcN6P” value was less than 1e-05 s⁻¹.
Turning to A33G U56A, the “self-cleavage kobs at 40 uM GlcN6P” value with glucosamine-6-phosphate [1] is less than 1e-05 s⁻¹. The “self-cleavage kobs at 160 uM GlcN6P” value with glucosamine-6-phosphate [2] was less than 1e-05 s⁻¹. Moreover, in the data set with glucosamine-6-phosphate [3], the “self-cleavage kobs at 640 uM GlcN6P” value is less than 1e-05 s⁻¹. Besides, the “self-cleavage kobs at 10000 uM GlcN6P” value in the data set with glucosamine-6-phosphate [4] was less than 1e-05 s⁻¹.
G44A C71A: in the data set with glucosamine-6-phosphate [1], the “self-cleavage kobs at 40 uM GlcN6P” value was less than 1e-05 s⁻¹. Moreover, the “self-cleavage kobs at 160 uM GlcN6P” value with glucosamine-6-phosphate [2] is less than 1e-05 s⁻¹. Further, the “self-cleavage kobs at 640 uM GlcN6P” value in the data set with glucosamine-6-phosphate [3] is less than 1e-05 s⁻¹. For the same variant, the “self-cleavage kobs at 2500 uM GlcN6P” value in the data set with glucosamine-6-phosphate [5] is less than 1e-05 s⁻¹.
In the case of A14G U30A A39G A53C, the “self-cleavage kobs at 40 uM GlcN6P” value in the data set with glucosamine-6-phosphate [1] came to 9.97e-05 ± 2.6e-05 s⁻¹. For the same variant, the “self-cleavage kobs at 10000 uM GlcN6P” value in the data set with glucosamine-6-phosphate [4] was 0.00799 ± 0.0023 s⁻¹.
Regarding A6C C50G C61G, in the data set with glucosamine-6-phosphate [1], the “self-cleavage kobs at 40 uM GlcN6P” value worked out at 0.000119 ± 3.4e-05 s⁻¹. Further, the “self-cleavage kobs at 160 uM GlcN6P” value with glucosamine-6-phosphate [2] turned out to be 0.000251 ± 7.8e-05 s⁻¹. The “self-cleavage kobs at 640 uM GlcN6P” value with glucosamine-6-phosphate [3] was found to be 0.00102 ± 0.00025 s⁻¹. Besides, in the data set with glucosamine-6-phosphate [5], the “self-cleavage kobs at 2500 uM GlcN6P” value was 0.000289 ± 0.0001 s⁻¹. The “self-cleavage kobs at 10000 uM GlcN6P” value with glucosamine-6-phosphate [4] worked out at 0.000343 ± 6.1e-05 s⁻¹.
On to G41U U46G G59C, for which, in the data set with glucosamine-6-phosphate [1], the “self-cleavage kobs at 40 uM GlcN6P” value is less than 1e-05 s⁻¹. The “self-cleavage kobs at 640 uM GlcN6P” value in the data set with glucosamine-6-phosphate [3] is less than 1e-05 s⁻¹. Also, the “self-cleavage kobs at 2500 uM GlcN6P” value with glucosamine-6-phosphate [5] is less than 1e-05 s⁻¹. The “self-cleavage kobs at 10000 uM GlcN6P” value with glucosamine-6-phosphate [4] is less than 1e-05 s⁻¹.
As to C16G G38C, the “self-cleavage kobs at 40 uM GlcN6P” value with glucosamine-6-phosphate [1] was less than 1e-05 s⁻¹. For the same variant, the “self-cleavage kobs at 160 uM GlcN6P” value with glucosamine-6-phosphate [2] is less than 1e-05 s⁻¹.
Consider G13C G43U A52U, for which, in the data set with glucosamine-6-phosphate [1], the “self-cleavage kobs at 40 uM GlcN6P” value was less than 1e-05 s⁻¹. Moreover, in the data set with glucosamine-6-phosphate [3], the “self-cleavage kobs at 640 uM GlcN6P” value is less than 1e-05 s⁻¹. The “self-cleavage kobs at 2500 uM GlcN6P” value in the data set with glucosamine-6-phosphate [5] was less than 1e-05 s⁻¹. The “self-cleavage kobs at 10000 uM GlcN6P” value with glucosamine-6-phosphate [4] was less than 1e-05 s⁻¹.
For G37U A39U U45G G51A G59A, the “self-cleavage kobs at 40 uM GlcN6P” value with glucosamine-6-phosphate [1] is less than 1e-05 s⁻¹.
As for A15C G32U G60U, the “self-cleavage kobs at 40 uM GlcN6P” value with glucosamine-6-phosphate [1] was less than 1e-05 s⁻¹. In addition, in the data set with glucosamine-6-phosphate [4], the “self-cleavage kobs at 10000 uM GlcN6P” value is less than 1e-05 s⁻¹.
As for C10U A15G G40U, in the data set with glucosamine-6-phosphate [1], the “self-cleavage kobs at 40 uM GlcN6P” value is less than 1e-05 s⁻¹. For the same variant, the “self-cleavage kobs at 10000 uM GlcN6P” value with glucosamine-6-phosphate [4] is less than 1e-05 s⁻¹.
Consider G9A G38A, for which the “self-cleavage kobs at 40 uM GlcN6P” value with glucosamine-6-phosphate [1] is less than 1e-05 s⁻¹. The “self-cleavage kobs at 10000 uM GlcN6P” value with glucosamine-6-phosphate [4] was less than 1e-05 s⁻¹.
